Laboratory results from publication PMC3077382, “14-3-3 Proteins Regulate Exonuclease 1–Dependent Processing of Stalled Replication Forks” (PLoS Genetics, 2011).

Target: T1, Exo1-Myc (S. cerevisiae, UniProt P39875 1-702)
T1 construct: Saccharomyces cerevisiae Exonuclease 1 (Exo1); C-terminal Myc tag added to the endogenous EXO1 gene; also called yeast Exo1; source: S. cerevisiae (W303-1A background), endogenous EXO1 gene tagged; in whole cell extract; immunoprecipitated from control or HU-treated cells for Far Western; not shown: Myc, C-terminal, kept
T1 sequence (looked up): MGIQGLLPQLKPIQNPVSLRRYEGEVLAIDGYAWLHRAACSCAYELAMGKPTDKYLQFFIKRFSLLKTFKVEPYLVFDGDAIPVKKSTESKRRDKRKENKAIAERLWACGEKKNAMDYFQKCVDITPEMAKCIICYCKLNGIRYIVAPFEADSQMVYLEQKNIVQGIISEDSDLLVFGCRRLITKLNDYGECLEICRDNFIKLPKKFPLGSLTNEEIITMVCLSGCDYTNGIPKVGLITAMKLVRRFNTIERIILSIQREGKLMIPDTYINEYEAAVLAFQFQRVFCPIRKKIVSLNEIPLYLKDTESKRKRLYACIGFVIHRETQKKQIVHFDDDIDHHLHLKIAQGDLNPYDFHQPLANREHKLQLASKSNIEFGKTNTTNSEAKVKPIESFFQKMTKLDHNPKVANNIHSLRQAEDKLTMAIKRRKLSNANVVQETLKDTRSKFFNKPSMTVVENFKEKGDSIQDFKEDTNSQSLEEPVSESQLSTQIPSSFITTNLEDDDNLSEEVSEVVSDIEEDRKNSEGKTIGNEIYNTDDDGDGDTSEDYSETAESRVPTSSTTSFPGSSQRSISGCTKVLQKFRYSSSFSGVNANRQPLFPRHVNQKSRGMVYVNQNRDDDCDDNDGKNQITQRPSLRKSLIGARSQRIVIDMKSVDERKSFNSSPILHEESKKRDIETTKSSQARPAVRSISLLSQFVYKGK
Assay: far-Western, overlay or dot blot; Exo1-Myc immunoprecipitated from untreated or HU-treated yeast cells, resolved by SDS-PAGE, transferred to PVDF and denatured/renatured; probed with purified GST-Bmh1 (2 µg)
Conditions: both partners purified

- binding result: binds
B1: GST-Bmh1 (natural protein, S. cerevisiae, UniProt P29311 1-267, looked up)
chain: MSTSREDSVYLAKLAEQAERYEEMVENMKTVASSGQELSVEERNLLSVAYKNVIGARRASWRIVSSIEQKEESKEKSEHQVELICSYRSKIETELTKISDDILSVLDSHLIPSATTGESKVFYYKMKGDYHRYLAEFSSGDAREKATNASLEAYKTASEIATTELPPTHPIRLGLALNFSVFYYEIQNSPDKACHLAKQAFDDAIAELDTLSEESYKDSTLIMQLLRDNLTLWTSDMSESGQAEDQQQQQQHQQQQPPAAAEGEAPK
notes: Saccharomyces cerevisiae 14-3-3 protein Bmh1; also called purified recombinant GST-Bmh1
